{"source": "paper PMC4018121", "binders": {"B1": {"name": "TOV6 (structured_DNA)", "DNA": "ATCCAGAGTGACGCAGCACGGCACTCACTCTTTGTTAAGTGGTCTGCTTCTTAACCTTCATCGACACGGTGGCTTA"}}, "biological_target": "rhSTIP1 (stress-induced phosphoprotein 1) (Homo sapiens, UniProt P31948 1-543)", "experiment": "aptamer blot on nitrocellulose, chemiluminescence"}
{"binder": "B1", "values": [{"measurement": "binding result", "result": "binds"}]}
